Assays:
AAVXL32.1蛋白衣壳 [1] = experiment: BLI (Fortebio), mAb002 on protein G biosensor, antigen at 0.2813 nM
AAVXL32.1蛋白衣壳 [2] = experiment: BLI (Fortebio), mAb002 2 ug/ml on protein G biosensor, antigen at 0.0703 nM in PBS
AAVXL32.1蛋白衣壳 [3] = experiment: BLI (Fortebio), mAb002 2 ug/ml on protein G biosensor, antigen at 0.5625 nM in PBS
AAVXL32.1蛋白衣壳 [4] = experiment: BLI (Fortebio), mAb002 2 ug/ml on protein G biosensor, antigen at 0.2813 nM in PBS
AAVXL32.1蛋白衣壳 [5] = experiment: BLI (Fortebio), mAb002 on protein G biosensor, antigen at 2.25 nM
AAVXL32.1蛋白衣壳 [6] = experiment: BLI (Fortebio), mAb002 2 ug/ml on protein G biosensor, antigen at 0.1406 nM in PBS
AAVXL32.1蛋白衣壳 [7] = experiment: BLI (Fortebio), mAb002 on protein G biosensor, antigen at 0.1406 nM
AAVXL32.1蛋白衣壳 [8] = experiment: BLI (Fortebio), mAb002 2 ug/ml on protein G biosensor, antigen at 2.25 nM in PBS
AAVXL32.1蛋白衣壳 [9] = experiment: BLI (Fortebio), mAb002 on protein G biosensor, antigen at 0.0703 nM
AAVXL32.1蛋白衣壳 [10] = experiment: BLI (Fortebio), mAb002 on protein G biosensor, antigen at 0.5625 nM
AAVXL32.1蛋白衣壳 [11] = experiment: BLI (Fortebio), mAb002 on protein G biosensor, antigen at 1.13 nM
AAVXL32.1蛋白衣壳 [12] = experiment: BLI (Fortebio), mAb002 2 ug/ml on protein G biosensor, antigen at 1.13 nM in PBS

B1: mAb002抗体 (antibody, V domains shown)
VH: QVQLQQPGAELVRPGTSVKLSCKASGYTFISYWMHWVKQRPGQGLEWIGVIDPSDSYTNYNQKFKGKATLTVDTSSSTAYMQLSSLTSEDSAVYYCARYYYGSSRYFDVWGTGTTVTVSS
VL: YIQMTQTTSSLSASLGDRVTISCRASQDISNYLNWYQQKPDGTVKVLIYYTSRLHSGVPSRFSGSGSGTDYSLTISNLEQEDIATYFCQQSYTLPWTFGGGTKLEIK
Kd (AAVXL32.1蛋白衣壳 [1]): < 1 pM | koff (AAVXL32.1蛋白衣壳 [1]): < 1e-07 s⁻¹ | kon (AAVXL32.1蛋白衣壳 [1]): 3.26e+06 M⁻¹ s⁻¹ | 响应 (AAVXL32.1蛋白衣壳 [2]): 0.338 | 响应 (AAVXL32.1蛋白衣壳 [3]): 2.68 | 响应 (AAVXL32.1蛋白衣壳 [4]): 1.4 | Kd (AAVXL32.1蛋白衣壳 [5]): < 1 pM | koff (AAVXL32.1蛋白衣壳 [5]): < 1e-07 s⁻¹ | kon (AAVXL32.1蛋白衣壳 [5]): 3.26e+06 M⁻¹ s⁻¹ | 响应 (AAVXL32.1蛋白衣壳 [6]): 0.701 | Kd (AAVXL32.1蛋白衣壳 [7]): < 1 pM | koff (AAVXL32.1蛋白衣壳 [7]): < 1e-07 s⁻¹ | kon (AAVXL32.1蛋白衣壳 [7]): 3.26e+06 M⁻¹ s⁻¹ | 响应 (AAVXL32.1蛋白衣壳 [8]): 5.91 | Kd (AAVXL32.1蛋白衣壳 [9]): < 1 pM | koff (AAVXL32.1蛋白衣壳 [9]): < 1e-07 s⁻¹ | kon (AAVXL32.1蛋白衣壳 [9]): 3.26e+06 M⁻¹ s⁻¹ | Kd (AAVXL32.1蛋白衣壳 [10]): < 1 pM | koff (AAVXL32.1蛋白衣壳 [10]): < 1e-07 s⁻¹ | kon (AAVXL32.1蛋白衣壳 [10]): 3.26e+06 M⁻¹ s⁻¹ | Kd (AAVXL32.1蛋白衣壳 [11]): < 1 pM | koff (AAVXL32.1蛋白衣壳 [11]): < 1e-07 s⁻¹ | kon (AAVXL32.1蛋白衣壳 [11]): 3.26e+06 M⁻¹ s⁻¹ | 响应 (AAVXL32.1蛋白衣壳 [12]): 4.83
